According to paper PMC4721547, “Cyclophilin40 isomerase activity is regulated by a temperature-dependent allosteric interaction with Hsp90” (Bioscience Reports, 2015):

B1: GPTIEEVD peptide (Hsp70 wild-type C-terminal peptide) (peptide)
peptide: GPTIEEVD
B2: SRMEEVD peptide (Hsp90 wild-type C-terminal peptide) (peptide)
peptide: SRMEEVD
notes: also called Hsp90 peptide; Hsp90 wt
B3: GAAAEEVD peptide (Hsp70 mutant C-terminal peptide) (peptide)
peptide: GAAAEEVD

How the values were obtained:
[1] = target: Cyclophilin 40 (human; pDEST14-6H-TEV-hCyp40) (human) (UniProt Q08752)
[2] = target: T1, Cyclophilin 40 (human; pDEST14-6H-TEV-hCyp40) (human, UniProt Q08752 1-370); assay: ITC; 500 uM SRMEEVD titrated into 7.7 uM Cyp40 in 15 x 2.5 ul aliquots; 50 mM Hepes pH 8, 100 mM sodium chloride, 1 mM DTT; 1:1 binding model; 10 °C; conditions: both partners purified
T1 construct: Cyclophilin 40 (Cyp40, PPID), human; construct pDEST14-6H-TEV-hCyp40; Monomeric by dynamic light scattering; also called PPID; source: E. coli BL21 star (DE3), purified (IMAC, gel filtration on Superdex 200)

[3] = target: T1, Cyclophilin 40 (human; …); assay: ITC; 500 uM SRMEEVD titrated into 7.7 uM Cyp40 in 15 x 2.5 ul aliquots; 50 mM Hepes pH 8, 100 mM sodium chloride, 1 mM DTT; 1:1 binding model; 30 °C (highest attainable temperature); conditions: both partners purified
[4] = target: T1, Cyclophilin 40 (human; …); assay: ITC; 500 uM SRMEEVD titrated into 7.7 uM Cyp40 in 15 x 2.5 ul aliquots; 50 mM Hepes pH 8, 100 mM sodium chloride, 1 mM DTT; 1:1 binding model; 20 °C (value told with Supplementary Figure S2); conditions: both partners purified

T1 sequence (Q08752 whole entry): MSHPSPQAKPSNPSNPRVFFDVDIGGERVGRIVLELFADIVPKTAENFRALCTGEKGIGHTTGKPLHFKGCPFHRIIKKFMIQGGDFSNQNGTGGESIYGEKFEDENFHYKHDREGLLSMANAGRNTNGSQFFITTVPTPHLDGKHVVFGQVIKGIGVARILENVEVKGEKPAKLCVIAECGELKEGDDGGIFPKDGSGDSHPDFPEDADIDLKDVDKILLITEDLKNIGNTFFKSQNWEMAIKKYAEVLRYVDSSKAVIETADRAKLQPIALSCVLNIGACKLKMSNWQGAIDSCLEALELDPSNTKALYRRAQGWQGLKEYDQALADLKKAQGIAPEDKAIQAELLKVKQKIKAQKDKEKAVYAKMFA
Cyclophilin 40 (human; pDEST14-6H-TEV-hCyp40) (human), sequence (Q08752 whole entry): as above

Row | Binder | reduction of the PPIase activity of Cyp40 (10 nM) by 250 uM peptide, substrate Suc-A-A-P-F-p-NA, 10 °C [1] [%] | Kd [2] [µM] | Kd [3] [µM] | Kd [4] [µM]
1 | B1 | > 30 | – | – | –
2 | B2 | – | ~5 | ~25 | 10.7
3 | B3 | > 30 | – | – | –
